Results: article PMC9424271, “Invariant surface glycoprotein 65 of Trypanosoma brucei is a complement C3 receptor” (Nature Communications, 2022)

Experiments:
[1] = biological target: ISG65 1125G (residues 24-385), expressed with kifunensine and deglycosylated with Endo Hf (T. brucei EATRO1125); test: SPR; ISG65 1125G immobilised by amine coupling (345 RU) on a CM5 chip; C3d from 4 uM in two-fold serial dilutions; 30 ul/min, 25 C, 20 mM HEPES pH 7.4, 300 mM NaCl, 0.05% TWEEN-20; 1:1 Langmuir model
[2] = biological target: ISG65 1125G (residues 24-385) with C-terminal AviTag and His10 tag, biotinylated (T. brucei EATRO1125); test: SPR; biotinylated ISG65G (CHO, ~800 RU) on a streptavidin chip (SA); C3b and C3c from 500 nM in two-fold dilutions to 15.6 nM; 30 ul/min, 25 C, 20 mM HEPES pH 7.4, 150 mM NaCl, 0.005% TWEEN-20; C3b fitted to a two-state reaction model, C3c to a 1:1 Langmuir model
Human complement C3b = biological target: T1, Human complement C3b (human, UniProt P01024); test: SPR; biotinylated ISG65G (CHO, ~800 RU) immobilised on a streptavidin chip (Series S SA); C3b and C3c from 500 nM in two-fold dilutions to 15.6 nM; 30 ul/min, 25 C, 20 mM HEPES pH 7.4, 150 mM NaCl, 0.005% TWEEN-20; C3b fitted to a two-state reaction model, C3c to the 1:1 Langmuir model; averages of three flow paths with different immobilisation levels; settings: both partners purified
T1 construct: source: bought: Complement Technology
T1 sequence (P01024 23-667, chain 1 of 2): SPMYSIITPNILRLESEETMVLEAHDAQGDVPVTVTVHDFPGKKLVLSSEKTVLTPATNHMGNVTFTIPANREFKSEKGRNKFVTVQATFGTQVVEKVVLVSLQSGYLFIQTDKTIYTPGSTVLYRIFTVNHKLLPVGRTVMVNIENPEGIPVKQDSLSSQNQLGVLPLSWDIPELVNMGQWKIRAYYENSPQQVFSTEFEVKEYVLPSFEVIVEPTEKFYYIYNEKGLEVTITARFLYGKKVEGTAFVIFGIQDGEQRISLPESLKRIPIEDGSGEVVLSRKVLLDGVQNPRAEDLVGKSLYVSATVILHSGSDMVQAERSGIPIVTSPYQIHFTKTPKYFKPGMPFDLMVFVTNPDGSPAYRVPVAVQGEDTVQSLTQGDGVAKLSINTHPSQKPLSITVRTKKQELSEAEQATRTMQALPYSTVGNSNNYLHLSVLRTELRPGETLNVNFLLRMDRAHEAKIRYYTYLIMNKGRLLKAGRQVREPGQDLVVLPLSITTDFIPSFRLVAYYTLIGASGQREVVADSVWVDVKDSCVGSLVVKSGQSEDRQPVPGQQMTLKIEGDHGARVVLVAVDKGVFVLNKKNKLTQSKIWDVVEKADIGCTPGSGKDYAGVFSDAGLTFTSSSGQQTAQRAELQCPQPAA
T1 sequence (P01024 749-1663, chain 2 of 2): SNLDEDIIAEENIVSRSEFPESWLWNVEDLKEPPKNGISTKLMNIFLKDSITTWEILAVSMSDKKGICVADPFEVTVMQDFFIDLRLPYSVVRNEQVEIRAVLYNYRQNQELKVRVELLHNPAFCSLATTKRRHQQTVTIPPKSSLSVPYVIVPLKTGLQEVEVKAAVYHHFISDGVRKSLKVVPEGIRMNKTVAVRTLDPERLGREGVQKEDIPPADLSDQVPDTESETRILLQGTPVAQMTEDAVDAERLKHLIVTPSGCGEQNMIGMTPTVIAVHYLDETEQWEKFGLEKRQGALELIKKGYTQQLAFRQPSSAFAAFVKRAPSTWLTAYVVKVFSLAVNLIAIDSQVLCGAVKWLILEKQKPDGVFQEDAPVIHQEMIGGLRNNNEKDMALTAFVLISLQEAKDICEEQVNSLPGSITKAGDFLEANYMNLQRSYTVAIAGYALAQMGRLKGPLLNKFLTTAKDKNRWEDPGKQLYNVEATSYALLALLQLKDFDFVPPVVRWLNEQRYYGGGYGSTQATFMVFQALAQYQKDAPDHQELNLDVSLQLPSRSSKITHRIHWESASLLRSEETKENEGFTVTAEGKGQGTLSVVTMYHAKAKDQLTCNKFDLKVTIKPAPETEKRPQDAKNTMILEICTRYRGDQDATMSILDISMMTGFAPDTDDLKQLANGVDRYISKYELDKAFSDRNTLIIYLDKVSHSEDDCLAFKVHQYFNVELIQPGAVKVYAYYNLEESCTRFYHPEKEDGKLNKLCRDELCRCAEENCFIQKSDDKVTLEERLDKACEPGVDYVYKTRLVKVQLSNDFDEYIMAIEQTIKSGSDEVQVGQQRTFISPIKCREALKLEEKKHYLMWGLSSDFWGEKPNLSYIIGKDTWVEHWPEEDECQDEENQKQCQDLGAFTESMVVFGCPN

Human complement C3c = biological target: T2, Human complement C3c (human, UniProt P01024); test: as above; settings: both partners purified
T2 construct: source: bought: Complement Technology; copies: + +
T2 sequence (P01024 23-667, chain 1 of 3): as the sequence (P01024 23-667, chain 1 of 2) above
T2 sequence (P01024 749-954, chain 2 of 3): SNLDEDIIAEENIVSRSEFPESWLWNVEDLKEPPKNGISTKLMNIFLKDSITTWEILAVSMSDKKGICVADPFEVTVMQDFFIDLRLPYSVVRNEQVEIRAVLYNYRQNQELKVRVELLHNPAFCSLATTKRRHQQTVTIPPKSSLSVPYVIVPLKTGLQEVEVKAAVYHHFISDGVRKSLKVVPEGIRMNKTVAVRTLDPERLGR
T2 sequence (P01024 1321-1663, chain 3 of 3): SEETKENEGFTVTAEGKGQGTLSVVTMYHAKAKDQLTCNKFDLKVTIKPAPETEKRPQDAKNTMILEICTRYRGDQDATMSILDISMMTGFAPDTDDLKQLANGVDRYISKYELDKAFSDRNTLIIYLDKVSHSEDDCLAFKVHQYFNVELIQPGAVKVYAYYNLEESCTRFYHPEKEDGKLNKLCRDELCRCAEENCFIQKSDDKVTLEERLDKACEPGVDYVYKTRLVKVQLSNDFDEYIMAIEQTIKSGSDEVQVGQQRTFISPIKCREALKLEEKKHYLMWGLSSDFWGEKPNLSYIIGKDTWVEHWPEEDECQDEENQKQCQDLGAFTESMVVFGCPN

[3] = biological target: T3, Complement C3d (residues 996-1303 of H. sapiens C3, C1010A) (human, UniProt P01024 996-1303, C1010A); test: SPR; ISG65 1125G immobilised by amine coupling (345 RU) on a CM5 chip; C3d from 4 uM in two-fold dilutions; 30 ul/min, 25 C, 20 mM HEPES pH 7.4, 300 mM NaCl, 0.05% TWEEN-20; 1:1 Langmuir model; averages of three repeats on the same flow path; settings: both partners purified
T3 construct: also called C3d-WT; TED domain
T3 sequence (P01024 996-1303 C1010A): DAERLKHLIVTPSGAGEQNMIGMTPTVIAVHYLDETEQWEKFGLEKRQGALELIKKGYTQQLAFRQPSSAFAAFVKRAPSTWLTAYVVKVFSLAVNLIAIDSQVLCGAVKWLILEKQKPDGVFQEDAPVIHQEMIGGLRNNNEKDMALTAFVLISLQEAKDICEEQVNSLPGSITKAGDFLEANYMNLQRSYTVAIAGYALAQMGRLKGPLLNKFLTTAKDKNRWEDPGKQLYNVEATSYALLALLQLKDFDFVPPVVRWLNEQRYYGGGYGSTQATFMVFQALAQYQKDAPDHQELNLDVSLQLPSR

human complement C3d (C3 residues 996-1303, C1010A) (from UniProt P01024 996-1303) (domain or fragment)
Kd [1]: 602 nM

human complement C3b (from UniProt P01024 749-1663) (domain or fragment)
Kd [2]: 40 nM

human complement C3c (domain or fragment)
Kd [2]: 750 nM

B1: ISG65 1125G (residues 24-385), biotinylated (domain or fragment)
chain: EDNRVPGDKNLTKEGAAALCKMKHLADKVAEKRSQELKDRTQNFAGYIEFELYRIDYWLEKLNGPKGRKDGYAKLSDSDIEKVKEIFDKAKDGIAKQLPEAKKAGEDAEKLHTEVKEAAANARGQDLDDHKQKSTGLYRVLNWYCITKEESHNATPNCDGIQFRNHYLSVNRSAIDCSSTGYEENYDWSANALQVALNSWENVKPKKLESAGSDENCNIGQSSESHPCTMTEEWQTHYKETVKKLKELEGAHEKGRRAHDAMLGYANTAYAVNTKVEQEKPLAEVIAAAKEAGKKGAKIIIPAAAPVTPTNSTKNEDSAPTEHVDRGIATNETQVEVGIDADFDGLLEAAEAAEVTRRHQKTGSGSGSASG
modifications: biotin on the AviTag
notes: also called ISG65G; ISG65 E1125G
Kd (Human complement C3b): 67 nM | Kd (Human complement C3c): 391 nM | koff (Human complement C3c): 0.008 s⁻¹ | kon (Human complement C3c): 20000 M⁻¹ s⁻¹

B2: ISG65 1125G (residues 24-385), expressed with kifunensine and treated with Endo Hf (domain or fragment)
chain: B1 chain
notes: also called ISG65G
Kd [3]: 514 nM | koff [3]: 0.1 s⁻¹ | kon [3]: 300000 M⁻¹ s⁻¹
